The target of assay [1] is T1, C5L2 (Homo sapiens, UniProt Q9P296).
T1 construct: expressed in transfected cells
As to the kind of experiment: Degranulation (β-hexosaminidase) and enhancement of IgE-receptor-mediated degranulation, C5L2-transfected RBL cells. The assay is classed as cell-based.

The target in assay [2] is T1, C5L2. As to the kind of experiment: Competition binding with 125I-C3a, C5L2-transfected RBL cells. Particulars: for IC50 / pD2 ± SE: C5L2 (^125I-C3a) expressed in RBL cells, 50 pM radioligand. On the procedure: (§1) FIG. 1 illustrates C3a des-Arg^77 and C4a des-Arg^77 bind to RBL cells expressing C5L2. RBL cells transfected with C5L2 were incubated with the stated concentrations of complement fragments for 10 min prior to the addition of 50 pM ^125I-C3a (A) or 50 pM ^125I-C5a (B). Results are the means of n (n shown in Table 1) separate experiments performed in duplicate±S.E.;
(§2) C5L2, C3aR and CD88-transfected RBL cells were produced as described (17). G16 was cloned from human monocytes mRNA and authenticated by sequencing. Human G16 and either C5L2 or CD88 were ligated into the bicistronic expression vector pIRES (Qiagen). Stable transfection of RBL-2H3 cells with pIRES constructs was achieved by electroporation (18). Cells underwent three rounds of fluorescence-activated cell sorting using anti-CD88 antibody (clone S5/1; Serotec) or anti-hemagglutinin peptide antibody (Roćhe Molecular Biochemicals, clone 12CA5), selecting the top 5% of receptor-positive cells in each round.
(§3) Competition binding assays were performed using 50 pM ^125I-C5a or ^125I-C3a (NEN) on adherent C5aR-transfected or C5L2-transfected RBL cells in 96-well microtiter plates (55 000/well) at 4° C. as described previously (22). Competition curves were generated by pre-incubating adherent cells with increasing concentrations of unlabelled complement fragments. The IC50, standard error values and linear regression analyses were obtained by using GraphPad Prism 2.0.

Assay [3] addresses T1, C5L2. Kind of assay: Triglyceride synthesis (3H oleate incorporation) in HEK293 cells stably transfected with C5L2. It is filed as cell-based. On the procedure:
FIG. 15: Functional Response of HEK293 Cells Stably Transfected with C5L2 to ASP and Insulin: Cells were tested for response to ASP and insulin stimulation of triglyceride synthesis with 100 μM ^3H oleate for 4 hours. Results are calculated as nmol ^3H oleate incorporated into triglyceride/mg cell protein where 0 ASP is set as 100%. […] As in many biologic assays, the concentration required for activity at 37° C. under dynamic conditions is greater than the binding affinity (which is assessed at 4° C. under static conditions). For example, insulin Kd is in the pM range, but nM concentrations are required for activity. ASP Kd is high nM range, but biologic activity is in low μM range.

For assay [4], the target named is T2, C3aR (Homo sapiens, UniProt Q16581).
T2 construct: expressed in transfected cells
T2 sequence (Q16581 1-482): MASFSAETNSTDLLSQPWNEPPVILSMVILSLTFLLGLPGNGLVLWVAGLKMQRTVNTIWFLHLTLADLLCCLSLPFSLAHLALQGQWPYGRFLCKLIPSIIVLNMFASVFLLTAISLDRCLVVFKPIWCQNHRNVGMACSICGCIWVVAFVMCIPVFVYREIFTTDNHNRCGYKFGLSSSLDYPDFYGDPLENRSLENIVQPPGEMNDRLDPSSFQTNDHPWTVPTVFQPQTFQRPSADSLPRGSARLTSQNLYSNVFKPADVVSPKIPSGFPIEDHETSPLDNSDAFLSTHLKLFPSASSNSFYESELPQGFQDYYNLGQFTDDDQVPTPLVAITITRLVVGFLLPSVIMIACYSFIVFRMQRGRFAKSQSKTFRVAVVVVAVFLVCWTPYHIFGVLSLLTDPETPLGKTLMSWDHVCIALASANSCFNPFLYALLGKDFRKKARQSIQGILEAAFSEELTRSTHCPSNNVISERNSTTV
Kind of assay: Radiolabelled ligand competition receptor binding, C3aR-transfected RBL cells.
Source text: as §2, §3

The target of assay [5] is T2, C3aR. As to the kind of experiment: Degranulation of C3aR-transfected RBL cells. It is filed as cell-based. To be noted: RBL cells transfected with C3aR; data not shown. On the procedure:
(§4) Cellular activation was measured as the release of -hexosaminidase from intracellular granules (20). In the enhancement of degranulation assay, cells were treated with 1 μg/ml IgE^DNP (21) overnight, then with chemoattractants or peptides for 10 min prior to stimulation with 100 ng/ml DNP-HSA (Sigma) for 15 minutes. EC50 and standard error values were obtained by iterative curve fitting using GraphPad Prism 2.0.

In assay [6] the target is T3, CD88 (Homo sapiens, UniProt P21730).
T3 construct: expressed in transfected cells
T3 sequence (P21730 1-350): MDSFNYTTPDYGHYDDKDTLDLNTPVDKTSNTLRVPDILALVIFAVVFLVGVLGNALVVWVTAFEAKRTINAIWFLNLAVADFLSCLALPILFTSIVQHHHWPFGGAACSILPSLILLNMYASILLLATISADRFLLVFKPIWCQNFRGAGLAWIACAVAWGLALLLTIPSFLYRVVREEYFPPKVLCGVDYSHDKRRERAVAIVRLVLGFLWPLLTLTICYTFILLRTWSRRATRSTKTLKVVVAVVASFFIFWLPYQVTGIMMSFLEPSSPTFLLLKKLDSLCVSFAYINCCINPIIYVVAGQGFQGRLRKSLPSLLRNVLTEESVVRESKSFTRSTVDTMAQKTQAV
As to the kind of experiment: Radiolabelled ligand competition receptor binding, CD88-transfected RBL cells.
Source text: as §2, §3

Assay [7] addresses T1, C5L2. As to the kind of experiment: Competition binding with 125I-C5a, C5L2-transfected RBL cells. On the procedure:
as §1, §2, §3

The target in assay [8] is T3, CD88. As to the kind of experiment: Degranulation of CD88-transfected RBL cells. The assay is classed as cell-based.
In assay [9] the target is T4, human formyl peptide-like receptor-1 (Homo sapiens, UniProt P25090).
T4 construct: expressed in transfected cells; host or cells: RBL cells
T4 sequence (P25090 1-351): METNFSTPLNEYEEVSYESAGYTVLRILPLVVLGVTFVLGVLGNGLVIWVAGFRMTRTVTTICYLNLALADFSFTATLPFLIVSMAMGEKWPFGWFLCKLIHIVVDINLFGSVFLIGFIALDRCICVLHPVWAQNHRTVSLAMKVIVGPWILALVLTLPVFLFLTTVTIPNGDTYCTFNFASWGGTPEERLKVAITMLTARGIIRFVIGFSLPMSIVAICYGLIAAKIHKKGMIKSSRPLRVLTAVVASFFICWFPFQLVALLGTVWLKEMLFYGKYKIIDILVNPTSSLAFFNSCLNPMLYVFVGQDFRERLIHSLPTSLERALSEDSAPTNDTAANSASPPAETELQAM
As to the kind of experiment: Enhancement of degranulation, RBL cells transfected with an irrelevant receptor. It is filed as cell-based. To be noted: RBL cells transfected with FPRL-1, FIG. 3B. On the procedure:
FIG. 3 illustrates C3a des-Arg^77 enhances the degranulation response to cross-linkage of the high affinity IgE receptor in cells transfected with C5L2. RBL cells transfected with A), C5L2 or B), an irrelevant receptor (human formyl peptide-like receptor-1) were incubated overnight with […] IgE^DNP and then treated with the stated concentrations of C5a des-Arg^74, C4a des-Arg^77 or C3a des-Arg^77 or ASP for 15 minutes prior to the addition of the cross-linking agent, HSA-DNP at 100 ng/ml. Degranulation was assessed as the secretion of β-hexosaminidase. Results are shown as a percentage of the release stimulated by 100 ng/ml HSA-DNP in the absence of anaphylatoxin (control=1) and are means of 3-6 separate experiments performed in triplicate, ±S.E.
as §4

The target of assay [10] is T2, C3aR. Kind of assay: Fluorescent ligand binding/uptake (FACS), HEK 293 cells transiently transfected with C3aR. Particulars: HEK 293 transiently transfected with C3aR; mean±SD, n=3. On the procedure: (§5) HEK 293 cells were transfected with C3aR (A) or C5L2 (B) and three days later cells were incubated for 30 minutes with the indicated concentrations of FLUOS-labelled C3a or ASP, respectively. Binding/uptake was assessed by FACS, and the percentage of cells above a fluorescence intensity of 8 was determined. The fluorescence histograms at the highest and lowest ligand concentrations are shown in the insets;
(§6) HEK 293 cells were seeded into 6-well plates at 1×10^6 cells/well the day before transfection. C5L2 in vector pEE6hCMV.neo (Celltech) or C3aR in vector pcDNA1/AMP (Invitrogen) at 2 μg DNA/well were transfected with Lipofectamine2000 (5 μl/well) (Invitrogen) according to the manufacturer's protocol. Cells were assayed for binding/uptake three days post-transfection.
(§7) ASP or C3a was labelled with FLUOS (Roche Biochemicals) at a molar ratio of 1:10 (ligand:FLUOS) for two hours according to the manufacturer's recommendations. Labelled ligand was separated from free FLUOS on a Sephadex G25M column and stored in aliquots at −80° C.
(§8) Cells were incubated with the indicated concentrations of FLUOS-labelled ASP or C3a for 30 minutes at 37° C. in binding buffer (23) and washed three times with cold binding buffer. Cells were then detached with 0.25% trypsin/0.02% EDTA in PBS, fixed with 1% paraformaldehyde, washed with PBS, and assayed by fluorescence-activated cell scanning.

For assay [11], the target named is T1, C5L2. As to the kind of experiment: Fluorescent ligand binding/uptake (FACS), HEK 293 cells transiently transfected with C5L2. On the procedure: as §5, §6, §7, §8
In another assay the target is T5, CD88+Gα16 (Homo sapiens, UniProt P21730).
T5 construct: expressed in transfected cells
T5 sequence (P21730 1-350): T3 sequence (P21730 1-350)
As to the kind of experiment: Degranulation of CD88+Gα16 co-transfected RBL cells. Particulars: 10 ng/ml PT. It is filed as cell-based.

The mark [12] stands for this setting: HEK-C5L2 stable transfectants, 100 μM ^3H oleate, 4 hours.
Where [13] appears, read: C5L2 (^125I-C5a) expressed in RBL cells, 50 pM radioligand.

The source of these data is patent US20060121462A1, “Receptor and screening methods” (priority 2003, published 2006).

T1 sequence (Q9P296 whole entry): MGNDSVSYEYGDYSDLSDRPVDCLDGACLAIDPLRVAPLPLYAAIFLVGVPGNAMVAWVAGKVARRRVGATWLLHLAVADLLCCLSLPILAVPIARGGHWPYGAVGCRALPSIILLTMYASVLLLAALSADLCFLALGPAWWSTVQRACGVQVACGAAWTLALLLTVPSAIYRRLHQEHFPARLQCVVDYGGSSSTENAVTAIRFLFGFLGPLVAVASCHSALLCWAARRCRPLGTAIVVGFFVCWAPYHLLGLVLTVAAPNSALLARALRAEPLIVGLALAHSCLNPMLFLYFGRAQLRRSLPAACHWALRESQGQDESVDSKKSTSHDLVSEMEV

Regarding “ASP: Plasma ASP (C3a des-Arg^77), human C3a des-Arg^77 purified as acylation-stimulating protein”, the “EC50 compared with recombinant C3a des-Arg^77” value with C5L2 [1] (enhancement of IgE-mediated degranulation, FIG. 3A) is on record as “identical EC50”. In the assay with C5L2 [2] (binding affinity assessed at 4° C. under static conditions), the “Kd” value is on record as “high nM range”. For the same substance, the “concentration for biologic activity” value with C5L2 [3] (37° C. under dynamic conditions) was “low μM range”. Further, the “stimulation of triglyceride synthesis” value was “increasing triglyceride synthesis in a concentration dependent manner” with C5L2 [3] (setting [12]) and “not responsive to ASP” with C5L2 [3] (non-transfected HEK cells).

Turning to C3a des-Arg^77, in the assay with C3aR [4] (Table I), the “affinity for C3aR” value is given as “no detectable affinity”. The stimulation of degranulation result is “neither C3a des-AXg^77 nor C4a des-Arg^77 can stimulate degranulation” with C3aR [5] and “neither C3a des-AXg^77 nor C4a des-Arg^77 can stimulate degranulation” in the assay with CD88 [8] (RBL cells transfected with CD88, data not shown). Besides, the “competition with ^125I-C5a binding to CD88” value with CD88 [6] is reported as “cannot compete effectively”. Also, the “direct stimulation of degranulation” value with C5L2 [1] (without IgE receptor cross-linking, data not shown) is reported as “neither recombinant nor purified C3a des-Arg^77 (or any other ligand) is able to directly stimulate degranulation”. Further, the values for the IC50 with C5L2 [2] and with C5L2 [7] (setting [13]) were 526 nM and 18 µM, respectively. For the same substance, the results for the “pD2 ± SE” value with C5L2 [2] and in the assay with C5L2 [7] (setting [13]) were 6.24 ± 0.10 and 4.73 ± 0.16, respectively. In addition, the “competition with ^125I-C3a for C5L2 binding” value with C5L2 [2] (FIG. 1A) is recorded as “can compete strongly”. In the assay with C5L2 [7] (FIG. 1B), the “competition with ^125I-C5a binding to C5L2” value is “cannot compete effectively”. Besides, the enhancement of degranulation entry in [9] is on record as “small enhancement of degranulation”.

Turning to C3a: 77 amino acid complement fragment, the IC50 with CD88 [6] (CD88 expressed in RBL cells, competition binding, 4° C., read-out: IC50 (concentration of unlabelled ligand resulting in 50% of maximal radioligand binding)) came out at 23 µM; in the assay with C5L2 [2] it was 167 nM; with C5L2 [7] (setting [13]) it was 23 µM. Besides, in the assay with C5L2 [2], the “pD2 ± SE” value is 6.78 ± 0.10.

“FLUOS-ASP: ASP labelled with FLUOS at a molar ratio of 1:10”: in the assay with C3aR [10], the “binding (basal binding=100%)” value is listed as 103%±14%. Besides, in the assay with C5L2 [11] (HEK 293 transiently transfected with C5L2, 30 minutes at 37° C., flow cytometry, read-out: half maximal fluorescence intensity (binding/uptake)), the Kd was roughly 3 nM. In the assay with C5L2 [11] (mock-transfected HEK 293 cells, 10 nM), the “binding to mock-transfected cells” value is recorded as “no binding”.

As for “^125I-ASP: ^125I-labelled ASP [reference compound]”, the “binding to C3aR-transfected cells” value with C3aR [4] (^125I-labelled ligand, data not shown) is recorded as “does not bind to C3aR-transfected cells”.

For insulin, the “stimulation of triglyceride synthesis” value at C5L2 [3] (setting [12]) and on C5L2 [3] (non-transfected HEK cells) was “neither HEK nor HEK-C5L2 are responsive to insulin” throughout.

As for pertussis toxin [reference compound], the “effect on enhancement of degranulation by ASP/C3a des-Arg^77” value on C5L2 [1] (C5L2 alone, 10 ng/ml PT for 4 h, FIG. 4C) is reported as “can be inhibited by pre-treating cells with pertussis toxin”. Moreover, the “effect on degranulation response to C5a” value at CD88 [8] (CD88 alone, 0-10 ng/ml PT for 4 h prior to 50 nM C5a) is recorded as “inhibited the degranulation response”; at CD88+Gα16 it was “a small inhibition of degranulation”.
